{"source": "the supplement of paper PMC9170038", "system": "MS2 coat protein", "assay": "apparent KD of MS2 coat protein; designed switch direction (-1 OFF switch, 1 ON switch): -1; higher = weaker reporter binding", "outline": "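On Illumina chips, designed RNA switches with common flanks were made by stalled E. coli RNA polymerase. Titrations with SNAP-549-labelled MS2 coat protein, doubling from 0.7 or 1.5 nM to 3 µM, were done with no input, with 200 uM small-molecule ligand, or with an oligonucleotide input. Apparent KD is the median per design over clusters, from curve fits of normalised cluster fluorescence.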", "key": {"[1]": {"conditions": "input ligand: microRNA oligo, concentration not stated"}, "[2]": {"conditions": "Eterna round: R95, input ligand: microRNA oligo, concentration not stated"}}}
{"sequence": "GCAAGCUUAAUCAGUAUGAACAUGAGGAUCACCCAUGUAUAAGGUAAUUCUUUUGGGUUUUUUAUUGCUCGUCUUAU [JR_STOV1_Sub027] (Eterna round: R97, puzzle: Sensor, turn-off variant 1)", "values": [{"measurement": "apparent KD of MS2 coat protein", "setting": "input ligand: FMN 200 uM", "value": 245, "unit": "nM"}, {"measurement": "apparent KD of MS2 coat protein", "setting": "input ligand: none", "value": 297, "unit": "nM"}]}
{"sequence": "GCAAGCUUUUGCUCGCCUUACAUGAGGAUCACCCAUGUGGGCCCGGGCCCGGGCCCGCCGGGCCCGGGCCCGGGCCC [-59.4, -80.7 kcal, A 10%] (Eterna round: R97, puzzle: Sensor, turn-off variant 1)", "values": [{"measurement": "apparent KD of MS2 coat protein", "setting": "input ligand: FMN 200 uM", "value": 26.5, "unit": "nM"}, {"measurement": "apparent KD of MS2 coat protein", "setting": "input ligand: none", "value": 32.2, "unit": "nM"}]}
{"sequence": "GCAAUUUCAAAGGAUAUACCUAAUUAACUAUCGGUAGAAGGUUGGACAUGAGGAUCACCCAUGUGCUCACACUU [Eternabot (L2) Solution 67] (Eterna round: R97, puzzle: Exclusion 6)", "values": [{"measurement": "apparent KD of MS2 coat protein", "setting": "input ligand: FMN 200 uM", "value": 15.9, "unit": "nM"}, {"measurement": "apparent KD of MS2 coat protein", "setting": "input ligand: none", "value": 15.6, "unit": "nM"}]}
{"sequence": "GCACAGGCAGGAUAUACAUGAGGAUCACCCAUGUGACCCUUGAUGUACUCGCGUACACGUAGAAGGGCCUGUGC [Omei Ex3 Model Bachelor's Dilema v41] (Eterna round: R97, puzzle: Exclusion 3)", "values": [{"measurement": "apparent KD of MS2 coat protein", "setting": "input ligand: FMN 200 uM", "value": 633, "unit": "nM"}, {"measurement": "apparent KD of MS2 coat protein", "setting": "input ligand: none", "value": 407, "unit": "nM"}]}
{"sequence": "GCACAUGAGGAUCACCCAUGUCAAUGGGAAUUCCUUCUUCAACAGGAUAUCCGAUGGAGAACGUCGGAGAAGGGUUCGCCAGUA [Eternabot solution 15] (Eterna round: R96, puzzle: Exclusion NG 3)", "values": [{"measurement": "apparent KD of MS2 coat protein", "setting": "input ligand: FMN 200 uM", "value": 31.4, "unit": "nM"}, {"measurement": "apparent KD of MS2 coat protein", "setting": "[1]", "value": 19.5, "unit": "nM"}, {"measurement": "apparent KD of MS2 coat protein", "setting": "input ligand: none", "value": 25.7, "unit": "nM"}]}
{"sequence": "GCACCGCGAGGAUAUACAUGAGGAUCACCCAUGUGUCCGCAGCGAUGUGUGUACAAAUGUAGAAGGCGCGUAAA [EX3 #60] (Eterna round: R97, puzzle: Exclusion 3)", "values": [{"measurement": "apparent KD of MS2 coat protein", "setting": "input ligand: FMN 200 uM", "value": 21.5, "unit": "nM"}, {"measurement": "apparent KD of MS2 coat protein", "setting": "input ligand: none", "value": 12.1, "unit": "nM"}]}
{"sequence": "GCACGGAAAUUCCAUAAAACCACAUGAGGAUCACCCAUGUCUCAGGAUAUGGUCUGGAUUACAGGCCAGAAGGGAGAACCGUGC [Eli exng3 - 059] (Eterna round: R96, puzzle: Exclusion NG 3)", "values": [{"measurement": "apparent KD of MS2 coat protein", "setting": "input ligand: FMN 200 uM", "value": 15.1, "unit": "nM"}, {"measurement": "apparent KD of MS2 coat protein", "setting": "[1]", "value": 10.2, "unit": "nM"}, {"measurement": "apparent KD of MS2 coat protein", "setting": "input ligand: none", "value": 11.8, "unit": "nM"}]}
{"sequence": "GCACGGAGUGCAGGAUAUCUGUGCGAUUAGCUCAGAGAAGGGCACAUGAGGAUCACCCAUGUGUAUAAACACAAUAAUCCGUGC [Eli exng1 - 068] (Eterna round: R96, puzzle: Exclusion NG 1)", "values": [{"measurement": "apparent KD of MS2 coat protein", "setting": "input ligand: FMN 200 uM", "value": 18.6, "unit": "nM"}, {"measurement": "apparent KD of MS2 coat protein", "setting": "[1]", "value": 9.94, "unit": "nM"}, {"measurement": "apparent KD of MS2 coat protein", "setting": "input ligand: none", "value": 14, "unit": "nM"}]}
{"sequence": "GCACGGAGUGUAGGAUAUCUGUGCGAUUAGCUCAGAGAAGGACACAUGAGGAUCACCCAUGUGUAACUCAACAUUAAUCCGUGC [Eli exng1 - 074] (Eterna round: R96, puzzle: Exclusion NG 1)", "values": [{"measurement": "apparent KD of MS2 coat protein", "setting": "input ligand: FMN 200 uM", "value": 9.63, "unit": "nM"}, {"measurement": "apparent KD of MS2 coat protein", "setting": "[1]", "value": 7.59, "unit": "nM"}, {"measurement": "apparent KD of MS2 coat protein", "setting": "input ligand: none", "value": 10.6, "unit": "nM"}]}
{"sequence": "GCACGGAGUGUAGGAUAUCUGUGCGAUUAGCUCAGAGAAGGGCACAUGAGGAUCACCCAUGUGUAUAAACACAAUAAUCCGUGC [Eli exng1 - 069] (Eterna round: R96, puzzle: Exclusion NG 1)", "values": [{"measurement": "apparent KD of MS2 coat protein", "setting": "input ligand: FMN 200 uM", "value": 12.8, "unit": "nM"}, {"measurement": "apparent KD of MS2 coat protein", "setting": "[1]", "value": 7.91, "unit": "nM"}, {"measurement": "apparent KD of MS2 coat protein", "setting": "input ligand: none", "value": 14.1, "unit": "nM"}]}
{"sequence": "GCACGGUAAGUGAGGAUAUACCUCUGGAUACAGAGGUAGAAGGCACAUGAGGAUCACCCAUGUCCUAGCCGUGC [Fiskers BMX 4 - 88] (puzzle: Brourd's mod of Exclusion 4)", "values": [{"measurement": "apparent KD of MS2 coat protein", "setting": "[2]", "value": 32.9, "unit": "nM"}]}
{"sequence": "GCACGGUAAGUGAGGAUAUACCUCUGGAUACAGAGGUAGAAGGCACAUGAGGAUCACCCAUGUCUAAGCCGUGC [Fiskers BMX 4 - 83] (puzzle: Brourd's mod of Exclusion 4)", "values": [{"measurement": "apparent KD of MS2 coat protein", "setting": "[2]", "value": 14.7, "unit": "nM"}]}
{"sequence": "GCACGGUAAGUGAGGAUAUACCUCUGGAUACAGAGGUAGAAGGCACAUGAGGAUCACCCAUGUUCAAGCCGUGC [Fiskers BMX 4 - 85] (puzzle: Brourd's mod of Exclusion 4)", "values": [{"measurement": "apparent KD of MS2 coat protein", "setting": "Eterna round: R95, input ligand: FMN 200 uM", "value": 14.5, "unit": "nM"}, {"measurement": "apparent KD of MS2 coat protein", "setting": "[2]", "value": 13.2, "unit": "nM"}, {"measurement": "apparent KD of MS2 coat protein", "setting": "Eterna round: R95, input ligand: none", "value": 14.4, "unit": "nM"}]}
{"sequence": "GCACGGUAAGUGAGGAUAUACCUCUGGAUACAGAGGUAGAAGGCACAUGAGGAUCACCCAUGUUCCAGCCGUGC [Fiskers BMX 4 - 86] (puzzle: Brourd's mod of Exclusion 4)", "values": [{"measurement": "apparent KD of MS2 coat protein", "setting": "[2]", "value": 14.7, "unit": "nM"}]}
{"sequence": "GCACGGUUGCUAGGAUAUCCUUGCGAUUAGCAAGGAGAAGGAGCACAUGAGGAUCACCCAUGUACCUCAAUAAUCCAUCCGUGC [Eli exng1 - 029] (Eterna round: R96, puzzle: Exclusion NG 1)", "values": [{"measurement": "apparent KD of MS2 coat protein", "setting": "[1]", "value": 11, "unit": "nM"}]}
{"sequence": "GCACGGUUGGUAGGAUAUCCUUGCGAUUAGCAAGGAGAAGGACCACAUGAGGAUCACCCAUGUACCUCAAUUAUCCUUCCGUGC [Eli exng1 - 025] (Eterna round: R96, puzzle: Exclusion NG 1)", "values": [{"measurement": "apparent KD of MS2 coat protein", "setting": "input ligand: FMN 200 uM", "value": 13.7, "unit": "nM"}, {"measurement": "apparent KD of MS2 coat protein", "setting": "[1]", "value": 10.9, "unit": "nM"}, {"measurement": "apparent KD of MS2 coat protein", "setting": "input ligand: none", "value": 14.9, "unit": "nM"}]}
{"sequence": "GCACUCUUGUGAGGAUAUCGUUAAGGGACUUAACGAGAAGGUACAUGAGGAUCACCCAUGUGGAUCCUCCCGUUUGGAUCACUU [Eternabot solution 3] (Eterna round: R96, puzzle: Exclusion NG 1)", "values": [{"measurement": "apparent KD of MS2 coat protein", "setting": "input ligand: FMN 200 uM", "value": 177, "unit": "nM"}, {"measurement": "apparent KD of MS2 coat protein", "setting": "[1]", "value": 103, "unit": "nM"}, {"measurement": "apparent KD of MS2 coat protein", "setting": "input ligand: none", "value": 112, "unit": "nM"}]}
{"sequence": "GCACUGACAGGAUAUACAUGAGGAUCACCCAUGUGACCCUUGGAGUACUCGCGUACUCGUAGAAGGGUCUGUGC [Omei Ex3 Model Bachelor's Dilema v37] (Eterna round: R97, puzzle: Exclusion 3)", "values": [{"measurement": "apparent KD of MS2 coat protein", "setting": "input ligand: FMN 200 uM", "value": 95.8, "unit": "nM"}, {"measurement": "apparent KD of MS2 coat protein", "setting": "input ligand: none", "value": 35.9, "unit": "nM"}]}
{"sequence": "GCACUGCGAGGAUAUACAUGAGGAUCACCCAUGUGUCGGCAGACAUGGUUAAUCUAAGGUAGAAGGCGCGUAAA [JR_Ex3_Sub004] (Eterna round: R97, puzzle: Exclusion 3)", "values": [{"measurement": "apparent KD of MS2 coat protein", "setting": "input ligand: FMN 200 uM", "value": 16.3, "unit": "nM"}, {"measurement": "apparent KD of MS2 coat protein", "setting": "input ligand: none", "value": 993, "unit": "nM"}]}
{"sequence": "GCAGAGGUAGUGAGGAUAUGCUCUACCUCGGUAGAGCAGAAGGCACAUGAGGAUCACCCAUGUGAUUCUUCUGC [Omei Ex4B B9] (Eterna round: R97, puzzle: Brourd's mod of Exclusion 4)", "values": [{"measurement": "apparent KD of MS2 coat protein", "setting": "input ligand: FMN 200 uM", "value": 15, "unit": "nM"}, {"measurement": "apparent KD of MS2 coat protein", "setting": "input ligand: none", "value": 13.2, "unit": "nM"}]}
{"sequence": "GCAGCAAAUUCCACUAAAACCACAUGAGGAUCACCCAUGUCUCAGGAUAUGGUCUGGAUUACAGGCCAGAAGGGAGAAAGCUGC [Eli exng3 - 056] (Eterna round: R96, puzzle: Exclusion NG 3)", "values": [{"measurement": "apparent KD of MS2 coat protein", "setting": "input ligand: FMN 200 uM", "value": 12.3, "unit": "nM"}, {"measurement": "apparent KD of MS2 coat protein", "setting": "[1]", "value": 9.52, "unit": "nM"}, {"measurement": "apparent KD of MS2 coat protein", "setting": "input ligand: none", "value": 14.8, "unit": "nM"}]}
{"sequence": "GCAGCAACUCUAAUUAAAACCACAUGAGGAUCACCCAUGUCUCAGGAUAUGGUCUGGAUUACAGGCCAGAAGGGAGAAAGCUGC [Eli exng3 - 051] (Eterna round: R96, puzzle: Exclusion NG 3)", "values": [{"measurement": "apparent KD of MS2 coat protein", "setting": "input ligand: FMN 200 uM", "value": 15.9, "unit": "nM"}, {"measurement": "apparent KD of MS2 coat protein", "setting": "[1]", "value": 14.9, "unit": "nM"}, {"measurement": "apparent KD of MS2 coat protein", "setting": "input ligand: none", "value": 17, "unit": "nM"}]}
